The results in this text go back to US20090166224A1 (published 2009).

Common to all, as to test: human serum on Con A/WGA/Jacalin column, lectin-specific displacer fraction, LC-MS/MS; grade = SEQUEST rank group (+ = ranks 1-5, ++++ = 16-20)
In assay [1] the target is T1, HEMOPEXIN (human, UniProt P02790 24-462).
T1 construct: from human serum
T1 sequence (looked up): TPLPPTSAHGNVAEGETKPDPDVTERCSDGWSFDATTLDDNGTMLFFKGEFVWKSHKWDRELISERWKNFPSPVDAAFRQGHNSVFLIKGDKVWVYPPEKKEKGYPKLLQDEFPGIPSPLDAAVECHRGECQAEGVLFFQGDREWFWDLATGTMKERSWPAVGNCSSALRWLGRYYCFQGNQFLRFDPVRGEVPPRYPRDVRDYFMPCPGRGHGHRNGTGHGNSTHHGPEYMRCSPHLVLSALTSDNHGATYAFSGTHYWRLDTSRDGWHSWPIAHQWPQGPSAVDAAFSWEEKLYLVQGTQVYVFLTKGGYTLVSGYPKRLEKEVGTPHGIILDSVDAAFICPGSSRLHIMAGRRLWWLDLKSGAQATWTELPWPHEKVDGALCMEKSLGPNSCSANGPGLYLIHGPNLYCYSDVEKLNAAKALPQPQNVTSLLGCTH

Assay [2] deals with T2, HAPTOGLOBIN-RELATED PROTEIN (human, UniProt P00739 1-348, limits assumed).
T2 construct: from human serum; also called HPTR
T2 sequence (looked up): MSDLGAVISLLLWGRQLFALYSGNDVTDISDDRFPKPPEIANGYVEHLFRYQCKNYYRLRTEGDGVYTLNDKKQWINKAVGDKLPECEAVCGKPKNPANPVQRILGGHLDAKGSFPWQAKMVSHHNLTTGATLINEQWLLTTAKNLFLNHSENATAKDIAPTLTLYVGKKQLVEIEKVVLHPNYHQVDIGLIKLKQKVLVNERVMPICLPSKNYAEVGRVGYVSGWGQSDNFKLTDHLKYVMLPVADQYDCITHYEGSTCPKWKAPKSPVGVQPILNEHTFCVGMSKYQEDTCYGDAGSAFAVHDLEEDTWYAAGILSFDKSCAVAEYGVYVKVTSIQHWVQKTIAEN

Assay [3] addresses T3, INTER-ALPHA-TRYPSIN INHIBITOR HEAVY CHAIN H1 (human, UniProt P19827 35-672).
T3 construct: from human serum; also called ITH1
T3 sequence (looked up): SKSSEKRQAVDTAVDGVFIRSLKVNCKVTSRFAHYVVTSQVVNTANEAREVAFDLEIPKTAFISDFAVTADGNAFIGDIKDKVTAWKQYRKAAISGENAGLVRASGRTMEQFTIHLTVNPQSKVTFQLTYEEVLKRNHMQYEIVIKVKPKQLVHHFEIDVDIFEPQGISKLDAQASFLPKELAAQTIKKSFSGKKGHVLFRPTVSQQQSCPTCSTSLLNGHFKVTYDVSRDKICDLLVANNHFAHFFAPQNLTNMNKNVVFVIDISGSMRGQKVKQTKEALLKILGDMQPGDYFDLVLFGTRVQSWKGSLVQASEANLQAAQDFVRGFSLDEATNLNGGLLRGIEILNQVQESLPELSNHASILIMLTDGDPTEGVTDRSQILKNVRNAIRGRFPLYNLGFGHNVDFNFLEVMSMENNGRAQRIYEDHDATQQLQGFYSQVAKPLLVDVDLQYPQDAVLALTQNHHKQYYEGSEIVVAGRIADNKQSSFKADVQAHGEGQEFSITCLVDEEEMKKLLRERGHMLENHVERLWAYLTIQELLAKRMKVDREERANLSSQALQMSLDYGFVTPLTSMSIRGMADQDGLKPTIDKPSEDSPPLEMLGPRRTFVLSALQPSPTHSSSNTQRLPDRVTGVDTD

For assay [4], the target named is T4, IG MU CHAIN C REGION (human, UniProt P01871-1 1-453).
T4 construct: domain: C region; Polyclonal serum IgM, identified through its constant region; variable regions and light chains not defined
T4 heavy (looked up): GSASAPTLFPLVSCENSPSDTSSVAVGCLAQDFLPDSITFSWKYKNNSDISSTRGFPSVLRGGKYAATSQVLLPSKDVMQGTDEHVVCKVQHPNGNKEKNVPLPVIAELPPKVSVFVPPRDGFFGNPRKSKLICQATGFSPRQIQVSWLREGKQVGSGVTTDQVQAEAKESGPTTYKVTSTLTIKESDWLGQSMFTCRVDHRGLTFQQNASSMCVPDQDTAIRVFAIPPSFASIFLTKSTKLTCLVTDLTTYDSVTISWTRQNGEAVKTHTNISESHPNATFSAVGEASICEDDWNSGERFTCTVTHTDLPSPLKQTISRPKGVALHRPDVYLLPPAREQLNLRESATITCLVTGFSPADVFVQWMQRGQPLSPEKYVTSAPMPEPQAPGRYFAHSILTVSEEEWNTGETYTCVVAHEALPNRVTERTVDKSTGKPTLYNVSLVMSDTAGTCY

B1: wheat germ agglutinin (WGA), agarose-bound (other, UniProt P10968 27-197, looked up)
chain: QRCGEQGSNMECPNNLCCSQYGYCGMGGDYCGKGCQNGACWTSKRCGSQAGGATCTNNQCCSQYGYCGFGAEYCGAGCQGGPCRADIKCGSQAGGKLCPNNLCCSQWGFCGLGSEFCGGGCQSGACSTDKPCGKDAGGRVCTNNYCCSKWGSCGIGPGYCGAGCQSGGCDG
modifications: immobilized on agarose
notes: Lectin; released with N-acetyl-glucosamine; Coated on the plate in the lectin ELISA
Turning to B1, the “SEQUEST ranking (relative abundance in the WGA displacement fraction)” value fell in the range of 1 to 5 rank in assay [1], 1 to 5 rank in assay [2], 11 to 15 rank in assay [3] and 6 to 10 rank in assay [4].
